Measurements from patent publication US20200148732A1 (UNIVERSITY OF COPENHAGEN, published 2020).
Substitutions are numbered along the chain they refer to.

Columns and labels:
GFP-TONSL N571A = molecular target: T1, GFP-TONSL N571A (Homo sapiens, UniProt Q96HA7 1-1378); experiment: GFP immunoprecipitation of GFP-TONSL from transfected HeLa S3 cells, western blot (co-IP; association may be indirect)
T1 construct: also called TONSL N571A / GFP; not shown: N-terminal GFP tag
T1 sequence: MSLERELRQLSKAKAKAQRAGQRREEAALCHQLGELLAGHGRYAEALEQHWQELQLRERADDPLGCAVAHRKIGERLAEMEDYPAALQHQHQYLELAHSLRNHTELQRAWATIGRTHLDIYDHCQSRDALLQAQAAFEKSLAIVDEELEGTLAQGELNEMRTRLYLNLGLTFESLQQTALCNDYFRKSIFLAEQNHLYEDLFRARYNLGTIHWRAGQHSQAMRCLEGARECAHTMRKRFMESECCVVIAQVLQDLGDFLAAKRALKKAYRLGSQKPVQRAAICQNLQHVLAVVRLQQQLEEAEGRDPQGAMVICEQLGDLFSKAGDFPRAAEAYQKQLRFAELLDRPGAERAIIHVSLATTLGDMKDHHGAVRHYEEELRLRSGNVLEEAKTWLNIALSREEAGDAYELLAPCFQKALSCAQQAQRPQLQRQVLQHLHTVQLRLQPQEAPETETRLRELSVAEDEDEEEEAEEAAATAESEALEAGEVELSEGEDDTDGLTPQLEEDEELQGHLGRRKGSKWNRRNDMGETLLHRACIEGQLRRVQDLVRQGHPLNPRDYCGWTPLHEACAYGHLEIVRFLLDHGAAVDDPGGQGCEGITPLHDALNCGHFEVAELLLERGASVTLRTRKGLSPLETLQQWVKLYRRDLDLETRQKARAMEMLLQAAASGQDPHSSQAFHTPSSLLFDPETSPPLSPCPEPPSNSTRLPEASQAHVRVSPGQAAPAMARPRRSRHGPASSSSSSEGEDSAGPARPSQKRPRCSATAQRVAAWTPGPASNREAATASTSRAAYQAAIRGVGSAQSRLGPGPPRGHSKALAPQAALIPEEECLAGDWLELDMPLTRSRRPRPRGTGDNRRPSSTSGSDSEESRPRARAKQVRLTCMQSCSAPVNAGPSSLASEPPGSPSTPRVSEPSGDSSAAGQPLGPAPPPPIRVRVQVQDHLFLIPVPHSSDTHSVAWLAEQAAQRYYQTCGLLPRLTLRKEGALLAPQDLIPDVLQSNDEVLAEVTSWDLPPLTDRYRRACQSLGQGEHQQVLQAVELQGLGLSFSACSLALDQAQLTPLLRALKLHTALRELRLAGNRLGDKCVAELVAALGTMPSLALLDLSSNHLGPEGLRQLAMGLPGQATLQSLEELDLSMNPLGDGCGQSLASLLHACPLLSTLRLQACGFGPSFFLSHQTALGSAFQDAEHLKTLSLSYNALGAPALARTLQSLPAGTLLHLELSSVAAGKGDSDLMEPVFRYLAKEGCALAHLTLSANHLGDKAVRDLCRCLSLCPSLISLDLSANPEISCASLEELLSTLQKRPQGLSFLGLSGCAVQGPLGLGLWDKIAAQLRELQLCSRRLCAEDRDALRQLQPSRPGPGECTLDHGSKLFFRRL

GFP-TONSL E568A = molecular target: T2, GFP-TONSL E568A (Homo sapiens, UniProt Q96HA7 1-1378); experiment: as above
T2 construct: also called TONSL E568A / GFP; not shown: N-terminal GFP tag
T2 sequence: T1 sequence with E568A, A571N

B1: MMS22L (endogenous, in cell extracts) (other, UniProt Q6ZRQ5 1-1243, looked up)
chain: MENCSAASTFLTDSLELELGTEWCKPPYFSCAVDNRGGGKHFSGESYLCSGALKRLILNLDPLPTNFEEDTLEIFGIQWVTETALVNSSRELFHLFRQQLYNLETLLQSSCDFGKVSTLHCKADNIRQQCVLFLHYVKVFIFRYLKVQNAESHVPVHPYEALEAQLPSVLIDELHGLLLYIGHLSELPSVNIGAFVNQNQIKLFPPSWHLLHLHLDIHWLVLEILYMLGEKLKQVVYGHQFMNLASDNLTNISLFEEHCETLLCDLISLSLNRYDKVRSSESLMSDQCPCLCIKELWVLLIHLLDHRSKWFVSESFWNWLNKLLKTLLEKSSDRRRSSMPVIQSRDPLGFSWWIITHVASFYKFDRHGVPDEMRKVESNWNFVEELLKKSISVQGVILEEQLRMYLHCCLTLCDFWEPNIAIVTILWEYYSKNLNSSFSISWLPFKGLANTMKSPLSMLEMVKTCCCDKQDQELYKSSSSYTIFLCILAKVVKKAMKSNGPHPWKQVKGRIYSKFHQKRMEELTEVGLQNFFSLFLLLAAVAEVEDVASHVLDLLNFLKPAFVTSQRALIWKGHMAFLLMYAQKNLDIGVLAEKFSCAFREKAKEFLVSKNEEMVQRQTIWTLLSIYIDGVQEVFETSYCLYPSHEKLLNDGFSMLLRACRESELRTVLSFLQAVLARIRSMHQQLCQELQRDNVDLFVQSSLSAKERHLAAVASALWRHFFSFLKSQRMSQVVPFSQLADAAADFTLLAMDMPSTAPSDFQPQPVISIIQLFGWDDIICPQVVARYLSHVLQNSTLCEALSHSGYVSFQALTVRSWIRCVLQMYIKNLSGPDDLLIDKNLEEAVEKEYMKQLVKLTRLLFNLSEVKSIFSKAQVEYLSISEDPKKALVRFFEAVGVTYGNVQTLSDKSAMVTKSLEYLGEVLKYIKPYLGKKVFSAGLQLTYGMMGILVKSWAQIFATSKAQKLLFRIIDCLLLPHAVLQQEKELPAPMLSAIQKSLPLYLQGMCIVCCQSQNPNAYLNQLLGNVIEQYIGRFLPASPYVSDLGQHPVLLALRNTATIPPISSLKKCIVQVIRKSYLEYKGSSPPPRLASILAFILQLFKETNTDIYEVELLLPGILKCLVLVSEPQVKRLATENLQYMVKACQVGSEEEPSSQLTSVFRQFIQDYGMRYYYQVYSILETVATLDQQVVIHLISTLTQSLKDSEQKWGLGRNIAQREAYSKLLSHLGQMGQDEMQRLENDNT
**Q.** Which results are given for B1?
**A.** binding result (GFP-TONSL N571A): binds; binding result (GFP-TONSL E568A): binds
